Biological target: PtTamH (Pseudoalteromonas tunicata)
Experiment: SEC; size exclusion chromatography of purified recombinant PtTamH after IMAC; retention volume corresponds to >200 kDa

## PtTamH (enzyme)
  stoichiometry N: 2
